Results as given in article PMC12393466 (2025).
No end group written: not given here.

Experiments:
[1] = molecular target: T1, P01.3 peptide; assay: concentration-dependent circular dichroism (222 nm, 40% TFE)
T1 chain: KKIVEILKKLVK

[2] = molecular target: T2, P01.1 peptide; assay: as above
T2 chain: KKIVTILKKLVK

Row | Binder | Kd [1] [µM] | Kd [2] [µM]
1 | Ac-KKIVEILKKLVK-NH2 [P01.3 peptide] | 51.5 | –
2 | KKIVTILKKLVK-NH2 [P01.1 peptide] | – | 769
